Test results taken from the supplement of paper PMC5998384.

How the values were obtained:
[1] = system: HeLa Kyoto; assay: melting temperature (median over replicates), in situ; higher = more thermally stable
[2] = system: HeLa Kyoto; assay: solubility in G1/S (NP-40 vs SDS abundance) (log2 ratio); higher = more soluble; conditions: cell cycle stage: G1/S
[3] = system: HeLa Kyoto; assay: solubility change mitosis vs G1/S (difference of NP-40 vs SDS log2 ratios) (log2 ratio difference); higher = more soluble in mitosis
[4] = system: HeLa Kyoto; assay: thermal stability score vs G1/S (z-score of summed log2 fold changes over temperatures); higher = more thermally stable than in G1/S
[5] = cell cycle stage: early G1 (4.5 h after nocodazole release)
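For melting temperature (median over replicates), in situ in this document: HeLa Kyoto cells synchronized by double thymidine or nocodazole block, proteins quantified by TMT10plex mass spectrometry, three independent biological replicates.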
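For solubility change mitosis vs G1/S (difference of NP-40 vs SDS log2 ratios) in this document: synchronized HeLa Kyoto cells (double thymidine block for G1/S, nocodazole release for mitosis), protein amounts in NP-40 versus SDS lysates quantified by mass spectrometry, three biological replicates.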
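For solubility in G1/S (NP-40 vs SDS abundance) in this document: HeLa Kyoto cells arrested at G1/S by double thymidine block, proteins quantified by TMT10plex mass spectrometry in mild NP-40 versus SDS extracts, three biological replicates.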
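For thermal stability score vs G1/S (z-score of summed log2 fold changes over temperatures) in this document: synchronized HeLa Kyoto cells, proteins quantified by TMT10plex mass spectrometry, three biological replicates, mitosis taken 0.5 h after nocodazole release, G1/S directly after double thymidine block.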

| Sequence | melting temperature ([1]; cell cycle stage: G1/S) [°C] | melting temperature ([1]; cell cycle stage: mitosis) [°C] | solubility in G1/S (log2) [2] | solubility change mitosis (log2) [3] | thermal stability score [4, 5] | thermal stability score ([4]; cell cycle stage: mitosis) |
| --- | --- | --- | --- | --- | --- | --- |
| MESRKLISATDIQYSGSLLNSLNEQRGHGLFCDVTVIVEDRKFRAHKNILSASSTYFHQLFSVAGQVVELSFIRAEIFAEILNYIYSSKIVRVRSDLLDELIKSGQLLGVKFIAELGVPLSQVKSISGTAQDGNTEPLPPDSGDKNLVIQKSKDEAQDNGATIMPIITESFSLSAEDYEMKKIIVTDSDDDDDDVIFCSEILPTKETLPSNNTVAQVQSNPGPVAISDVAPSASNNSPPLTNITPTQKLPTPVNQATLSQTQGSEKLLVSSAPTHLTPNIILLNQTPLSTPPNVSSSLPNHMPSSINLLVQNQQTPNSAILTGNKANEEEEEEIIDDDDDTISSSPDSAVSNTSLVPQADTSQNTSFDGSLIQKMQIPTLLQEPLSNSLKISDIITRNTNDPGVGSKHLMEGQKIITLDTATEIEGLSTGCKVYANIGEDTYDIVIPVKDDPDEGEARLENEIPKTSGSEMANKRMKVKHDDHYELIVDGRVYYICIVCKRSYVCLTSLRRHFNIHSWEKKYPCRYCEKVFPLAEYRTKHEIHHTGERRYQCLACGKSFINYQFMSSHIKSVHSQDPSGDSKLYRLHPCRSLQIRQYAYLSDRSSTIPAMKDDGIGYKVDTGKEPPVGTTTSTQNKPMTWEDIFIQQENDSIFKQNVTDGSTEFEFIIPESY [ZBTB33] | 46.4 | 51.6 | -0.035 | -0.162 | 1.76 | 3.1 |
| MESYHKPDQQKLQALKDTANRLRISSIQATTAAGSGHPTSCCSAAEIMAVLFFHTMRYKSQDPRNPHNDRFVLSKGHAAPILYAVWAEAGFLAEAELLNLRKISSDLDGHPVPKQAFTDVATGSLGQGLGAACGMAYTGKYFDKASYRVYCLLGDGELSEGSVWEAMAFASIYKLDNLVAILDINRLGQSDPAPLQHQMDIYQKRCEAFGWHAIIVDGHSVEELCKAFGQAKHQPTAIIAKTFKGRGITGVEDKESWHGKPLPKNMAEQIIQEIYSQIQSKKKILATPPQEDAPSVDIANIRMPSLPSYKVGDKIATRKAYGQALAKLGHASDRIIALDGDTKNSTFSEIFKKEHPDRFIECYIAEQNMVSIAVGCATRNRTVPFCSTFAAFFTRAFDQIRMAAISESNINLCGSHCGVSIGEDGPSQMALEDLAMFRSVPTSTVFYPSDGVATEKAVELAANTKGICFIRTSRPENAIIYNNNEDFQVGQAKVVLKSKDDQVTVIGAGVTLHEALAAAELLKKEKINIRVLDPFTIKPLDRKLILDSARATKGRILTVEDHYYEGGIGEAVSSAVVGEPGITVTHLAVNRVPRSGKPAELLKMFGIDRDAIAQAVRGLITKA [TKT] | 61.8 | 60.1 | 0.148 | -0.0914 | -3.36 | -2.81 |
| METESGNQEKVMEEESTEKKKEVEKKKRSRVKQVLADIAKQVDFWFGDANLHKDRFLREQIEKSRDGYVDISLLVSFNKMKKLTTDGKLIARALRSSAVVELDLEGTRIRRKKPLGERPKDEDERTVYVELLPKNVNHSWIERVFGKCGNVVYISIPHYKSTGDPKGFAFVEFETKEQAAKAIEFLNNPPEEAPRKPGIFPKTVKNKPIPALRVVEEKKKKKKKKGRMKKEDNIQAKEENMDTSNTSISKMKRSRPTSEGSDIESTEPQKQCSKKKKKRDRVEASSLPEVRTGKRKRSSSEDAESLAPRSKVKKIIQKDIIKEASEASKENRDIEISTEEEKDTGDLKDSSLLKTKRKHKKKHKERHKMGEEVIPLRVLSKSEWMDLKKEYLALQKASMASLKKTISQIKSESEMETDSGVPQNTGMKNEKTANREECRTQEKVNATGPQFVSGVIVKIISTEPLPGRKQVRDTLAAISEVLYVDLLEGDTECHARFKTPEDAQAVINAYTEINKKHCWKLEILSGDHEQRYWQKILVDRQAKLNQPREKKRGTEKLITKAEKIRLAKTQQASKHIRFSEYD [LARP7] | 48.8 | 50.1 | -0.53 | 0.194 | 0.456 | 1.1 |
| METFDPTELPELLKLYYRRLFPYSQYYRWLNYGGVIKNYFQHREFSFTLKDDIYIRYQSFNNQSDLEKEMQKMNPYKIDIGAVYSHRPNQHNTVKLGAFQAQEKELVFDIDMTDYDDVRRCCSSADICPKCWTLMTMAIRIIDRALKEDFGFKHRLWVYSGRRGVHCWVCDESVRKLSSAVRSGIVEYLSLVKGGQDVKKKVHLSEKIHPFIRKSINIIKKYFEEYALVNQDILENKESWDKILALVPETIHDELQQSFQKSHNSLQRWEHLKKVASRYQNNIKNDKYGPWLEWEIMLQYCFPRLDINVSKGINHLLKSPFSVHPKTGRISVPIDLQKVDQFDPFTVPTISFICRELDAISTNEEEKEENEAESDVKHRTRDYKKTSLAPYVKVFEHFLENLDKSRKGELLKKSDLQKDF [PRIM1] | 48.8 | 49.6 | -0.144 | -0.247 | 0.672 | 1.37 |
| METPAAAAPAGSLFPSFLLLACGTLVAALLGAAHRLGLFYQLLHKVDKASVRHGGENVAAVLRAHGVRFIFTLVGGHISPLLVACEKLGIRVVDTRHEVTAVFAADAMARLSGTVGVAAVTAGPGLTNTVTAVKNAQMAQSPILLLGGAASTLLQNRGALQAVDQLSLFRPLCKFCVSVRRVRDIVPTLRAAMAAAQSGTPGPVFVELPVDVLYPYFMVQKEMVPAKPPKGLVGRVVSWYLENYLANLFAGAWEPQPEGPLPLDIPQASPQQVQRCVEILSRAKRPLMVLGSQALLTPTSADKLRAAVETLGVPCFLGGMARGLLGRNHPLHIRENRSAALKKADVIVLAGTVCDFRLSYGRVLSHSSKIIIVNRNREEMLLNSDIFWKPQEAVQGDVGSFVLKLVEGLQGQTWAPDWVEELREADRQKEQTFREKAAMPVAQHLNPVQVLQLVEETLPDNSILVVDGGDFVGTAAHLVQPRGPLRWLDPGAFGTLGVGAGFALGAKLCRPDAEVWCLFGDGAFGYSLIEFDTFVRHKIPVMALVGNDAGWTQISREQVPSLGSNVACGLAYTDYHKAAMGLGARGLLLSRENEDQVVKVLHDAQQQCRDGHPVVVNILIGRTDFRDGSIAV [ILVBL] | 53.2 | 53.7 | -0.101 | -0.172 | 0.852 | -0.0354 |
| METVQLRNPPRRQLKKLDEDSLTKQPEEVFDVLEKLGEGSYGSVYKAIHKETGQIVAIKQVPVESDLQEIIKEISIMQQCDSPHVVKYYGSYFKNTDLWIVMEYCGAGSVSDIIRLRNKTLTEDEIATILQSTLKGLEYLHFMRKIHRDIKAGNILLNTEGHAKLADFGVAGQLTDTMAKRNTVIGTPFWMAPEVIQEIGYNCVADIWSLGITAIEMAEGKPPYADIHPMRAIFMIPTNPPPTFRKPELWSDNFTDFVKQCLVKSPEQRATATQLLQHPFVRSAKGVSILRDLINEAMDVKLKRQESQQREVDQDDEENSEEDEMDSGTMVRAVGDEMGTVRVASTMTDGANTMIEHDDTLPSQLGTMVINAEDEEEEGTMKRRDETMQPAKPSFLEYFEQKEKENQINSFGKSVPGPLKNSSDWKIPQDGDYEFLKSWTVEDLQKRLLALDPMMEQEIEEIRQKYQSKRQPILDAIEAKKRRQQNF [STK4] | 51.8 | 51.5 | 0.283 | -0.0655 | 0.936 | 0.0765 |
